This passage reports Kd results from patent US20160289298A1.

In one assay the target is TGFβ2 (UniProt P61812). The assay can be described thus: SPR (Biacore), receptor-Fc captured by anti-Fc antibody, ligand injected. For orientation: SPR reads the build-up and loss of mass on a sensor chip optically.
Another assay has as its target TGFβ1 (UniProt P01137). The assay is described as above.

Chain of TGFβ2 (P61812 303-414 limits assumed): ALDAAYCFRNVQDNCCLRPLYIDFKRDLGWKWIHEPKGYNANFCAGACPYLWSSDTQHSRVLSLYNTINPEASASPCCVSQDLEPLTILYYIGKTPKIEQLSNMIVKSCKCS
Chain of TGFβ1 (P01137 279-390 limits assumed): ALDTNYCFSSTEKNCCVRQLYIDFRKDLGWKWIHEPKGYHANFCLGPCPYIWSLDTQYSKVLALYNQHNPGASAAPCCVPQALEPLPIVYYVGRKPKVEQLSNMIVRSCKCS

As for “TGFβRII-Fc homodimeric complex (from UniProt P37173 23-159) (Fc fusion)”, the Kd was more than 44000 pM in the assay with TGFβ2 and 25 pM with TGFβ1.

In general, Kd refers to a measure of binding affinity in units of concentration.
